Reference: publication PMC12945441

Biological target: prefusion SARS-CoV-2 Omicron BA.1 S ectodomain trimer (SARS-CoV-2 Omicron BA.1)
Assay: cryo-EM structure

## prefusion SARS-CoV-2 Omicron BA.1 S ectodomain trimer (domain or fragment)
  stoichiometry N: 3
